These results are taken from patent publication US20120207676 (published 2012).

Assay [1] addresses T1, Neurotensin receptor NTS1 (HT29 cells/membranes) (human, UniProt P30989). In words: competition, HT29 cells.
For assay [2], the target named is T1, Neurotensin receptor NTS1 (HT29 …). The assay is described as follows: competition, HT29 membranes.

T1 sequence (P30989 whole entry): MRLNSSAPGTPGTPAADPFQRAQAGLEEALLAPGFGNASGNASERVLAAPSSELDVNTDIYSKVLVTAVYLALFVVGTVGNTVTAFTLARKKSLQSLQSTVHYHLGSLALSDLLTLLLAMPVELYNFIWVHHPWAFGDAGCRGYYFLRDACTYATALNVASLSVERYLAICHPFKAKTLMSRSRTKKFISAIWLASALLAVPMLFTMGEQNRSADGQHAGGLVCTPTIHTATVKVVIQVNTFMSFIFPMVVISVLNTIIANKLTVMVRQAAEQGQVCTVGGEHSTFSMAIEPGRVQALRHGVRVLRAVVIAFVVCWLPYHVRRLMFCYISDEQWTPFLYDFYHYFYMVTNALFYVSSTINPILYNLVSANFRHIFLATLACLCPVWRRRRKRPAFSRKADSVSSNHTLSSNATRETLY

KPRRPYIL (not fully specified; N-methylated Pro7-Arg8 bond, Tle12; DOTA(Y) at Lys6) [DOTA(Y)-NT-20.3] showed an IC50 in assay [1] of 7 nM.
In assay [1], KPRRPYIL (not fully specified; N-methylated Pro7-Arg8 bond, Tle12; DOTA(Ga) at Lys6) [DOTA(Ga)-NT-20.3] showed an IC50 of 13.9 nM.
Take KPRRPYIL (not fully specified; N-methylated Pro7-Arg8 bond, Tle12; DTPA(In) at Lys6) [DTPA(In)-NT-20.3]: the 50% inhibitory concentration (IC50) in assay [1] was 15.9 nM. Further, in assay [2], the Ki is 2.24 nM.
The corresponding values for KPRRPYIL (NT(6-13) analogue, N-methylated Pro7-Arg8 bond, Tle12) [NT-20.3] are 2.2 nM and 0.16 nM.
KPRRPYIL (not fully specified; N-methylated Pro7-Arg8 bond, Tle12; DOTA(In) at Lys6) [DOTA(In)-NT-20.3] returned an IC50 in assay [1] of 14.9 nM.
